Laboratory results taken from PMC12493207, “Annexin A2 interferes with complement regulation within the glomerulus” (The Journal of Biological Chemistry, 2025).

Molecular target: T1, recombinant murine Factor H (murine, UniProt P06909 19-1234)
T1 construct: murine complement Factor H, residues 19-1234 of UniProt P06909; also called FH; source: CHO cells, transfected, purified from the supernatant (HiTrap His column)
Experiment: ELISA; Figure 1A-B: by the legend varying concentrations of Factor H immobilised on the plate, a fixed concentration of rA2 or of an annexin A2 fragment added, bound annexin A2 detected with an antibody (the methods tell the reverse: 800 ng rA2 adsorbed, Factor H 20 μg/ml in TBS with 2 mM Ca, 3 h, room temperature)
Conditions: both partners purified

T1 sequence (P06909 19-1234): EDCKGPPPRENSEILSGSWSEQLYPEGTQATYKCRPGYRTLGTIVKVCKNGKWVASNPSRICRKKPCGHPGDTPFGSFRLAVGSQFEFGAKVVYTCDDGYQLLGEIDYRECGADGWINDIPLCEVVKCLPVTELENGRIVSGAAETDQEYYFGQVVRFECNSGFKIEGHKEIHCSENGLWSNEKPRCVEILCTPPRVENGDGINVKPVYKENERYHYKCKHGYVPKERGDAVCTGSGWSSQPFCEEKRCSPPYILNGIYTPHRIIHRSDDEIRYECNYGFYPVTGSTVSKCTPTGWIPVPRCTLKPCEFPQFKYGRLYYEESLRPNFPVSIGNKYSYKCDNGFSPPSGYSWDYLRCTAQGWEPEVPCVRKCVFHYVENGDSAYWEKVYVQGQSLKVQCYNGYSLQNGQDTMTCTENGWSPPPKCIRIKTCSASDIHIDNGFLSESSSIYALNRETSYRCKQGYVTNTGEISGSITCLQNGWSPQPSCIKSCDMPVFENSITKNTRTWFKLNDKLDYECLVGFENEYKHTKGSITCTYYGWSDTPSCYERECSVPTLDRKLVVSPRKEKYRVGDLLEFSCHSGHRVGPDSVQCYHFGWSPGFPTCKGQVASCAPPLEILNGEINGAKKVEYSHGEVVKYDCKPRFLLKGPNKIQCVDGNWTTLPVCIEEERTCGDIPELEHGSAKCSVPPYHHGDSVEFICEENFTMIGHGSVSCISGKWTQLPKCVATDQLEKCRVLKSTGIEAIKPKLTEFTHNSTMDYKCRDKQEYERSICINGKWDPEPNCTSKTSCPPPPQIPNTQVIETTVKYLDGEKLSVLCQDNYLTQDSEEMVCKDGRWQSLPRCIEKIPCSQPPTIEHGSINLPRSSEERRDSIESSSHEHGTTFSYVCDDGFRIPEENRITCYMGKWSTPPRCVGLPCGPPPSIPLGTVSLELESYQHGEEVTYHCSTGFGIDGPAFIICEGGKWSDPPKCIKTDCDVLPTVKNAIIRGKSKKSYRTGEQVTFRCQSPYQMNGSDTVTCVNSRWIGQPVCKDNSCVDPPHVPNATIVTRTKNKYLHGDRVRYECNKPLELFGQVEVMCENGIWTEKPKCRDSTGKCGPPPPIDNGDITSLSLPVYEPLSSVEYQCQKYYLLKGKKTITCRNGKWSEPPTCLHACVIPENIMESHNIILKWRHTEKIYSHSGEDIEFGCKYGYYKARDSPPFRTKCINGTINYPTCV

B1: recombinant annexin A2 (natural protein, mouse, UniProt P07356 1-339, looked up)
chain: MSTVHEILCKLSLEGDHSTPPSAYGSVKPYTNFDAERDALNIETAVKTKGVDEVTIVNILTNRSNVQRQDIAFAYQRRTKKELPSALKSALSGHLETVILGLLKTPAQYDASELKASMKGLGTDEDSLIEIICSRTNQELQEINRVYKEMYKTDLEKDIISDTSGDFRKLMVALAKGRRAEDGSVIDYELIDQDARELYDAGVKRKGTDVPKWISIMTERSVCHLQKVFERYKSYSPYDMLESIKKEVKGDLENAFLNLVQCIQNKPLYFADRLYDSMKGKGTRDKVLIRIMVSRSEVDMLKIRSEFKRKYGKSLYYYIQQDTKGDYQKALLYLCGGDD
notes: annexin A2, mouse; cDNA reverse transcribed from total mRNA of a C57BL/6 mouse kidney; also called rA2; AnxA2; source: CHO cells, transfected, purified from the supernatant (HiTrap His column)
- binding result: binds
